# Assay results taken from patent publication US10314925B2, “Thymidine kinase” (priority 2004, dated 2019).
# B1: TkMut4 (nucleic acid)
# DNA: ATGGCTTCGTACCCCTGCCATCAACACGCGTCTGCGTTCGACCAGGCTGCGCGTTCTCGCGGCCATAGCAACCGACGTACGGCGTTGCGCCCTCGCCGGCAGCAAGAAGCCACGGAAGTCCGCCTGGAGCAGAAAATGCCCACGCTACTGCGGGTTTATATAGACGGTCCTCACGGGATGGGGAAAACCACCACCACGCAACTGCTGGTGGCCCTGGGTTCGCGCGACGATATCGTCTACGTACCCGAGCCGATGACTTACTGGCAGGTGCTGGGGGCTTCCGAGACAATCGCGAACATCTACACCACACAACACCGCCTCGACCAGGGTGAGATATCGGCCGGGGACGCGGCGGTGGTAATGACAAGCGCCCAGATAACAATGGGCATGCCTTATGCCGTGACCGACGCCGTTCTGGCTCCTCATGTCGGGGGGGAGGCTGGGAGTTCACATGCCCCGCCCCCGGCCCTCACCCTCATCTTCGACCGCCATCCCATCGCCGCCCTCCTGTGCTACCCGGCCGCGCGATACCTTATGGGCAGCATGACCCCCCAAGCCGTGCTGGCGTTCGTGGCCCTCATCCCGCCGACCTTGCCCGGCACAAACATCGTGTTGGGGGCCCTTCCGGAGGACAGACACATCGACCGCCTGGCCAAACGCCAGCGCCCCGGCGAGCGGCTTGACCTGGCTATGCTGGCCGCGATTCGCCGCGTTTACGGGCTGCTTGCCAATACGGTGCGGTATCTGCAGGGCGGCGGGTCGTGGTGGGAGGATTGGGGACAGCTTTCGGGGACGGCCGTGCCGCCCCAGGGTGCCGAGCCCCAGAGCAACGCGGGCCCACGACCCCATATCGGGGACACGTTATTTACCCTGTTTCGGGCCCCCGAGTTGCTGGCCCCCAACGGCGACCTGTATAACGTGTTTGCCTGGGCCTTGGACGTCTTGGCCAAACGCCTCCGTCCCATGCACGTCTTTATCCTGGATTACGACCAATCGCCCGCCGGCTGCCGGGACGCCCTGCTGCAACTTACCTCCGGGATGGTCCAGACCCACGTCACCACCCCAGGCTCCATACCGACGATCTGCGACCTGGCGCGCACGTTTGCCCGGGAGATGGGGGAGGCTAACTGA
# modifications: HSV-1 thymidine kinase mutant sequence.
# B2: TkMut34 (nucleic acid)
# DNA: ATGGCTTCGTACCCCTGCCATCAACACGCGTCTGCGTTCGACCAGGCTGCGCGTTCTCGCGGCCATAGCAACCGACGTACGGCGTTGCGCCCTCGCCGGCAGCAAGAAGCCACGGAAGTCCGCCTGGAGCAGAAAATGCCCACGCTACTGCGGGTTTATATAGACGGTCCTCACGGGATGGGGAAAACCACCACCACGCAACTGCTGGTGGCCCTGGGTTCGCGCGACGATATCGTCTACGTACCCGAGCCGATGACTTACTGGCAGGTGCTGGGGGCTTCCGAGACAATCGCGAACATCTACACCACACAACACCGCCTCGACCAGGGTGAGATATCGGCCGGGGACGCGGCGGTGGTAATGACAAGCGCCCAGATAACAATGGGCATGCCTTATGCCGTGACCGACGCCGTTCTGGCTCCTCATGTCGGGGGGGAGGCTGGGAGTTCACATGCCCCGCCCCCGGCCCTCACCCTCATCTTCGACCGCCATCCCATCGCCGCCCTCCTGTGCTACCCGGCCGCGCGATACCTTATGGGCTCCATGACCCCCCAAGCCGTGCTGGCGTTCGTGGCCCTCATCCCGCCGACCTTGCCCGGCACAAACATCGTGTTGGGGGCCCTTCCGGAGGACAGACACATCGACCGCCTGGCCAAACGCCAGCGCCCCGGCGAGCGGCTTGACCTGGCTATGCTGGCCGCGATTCGCCGCGTTTACGGGCTGCTTGCCAATACGGTGCGGTATCTGCAGGGCGGCGGGTCGTGGTGGGAGGATTGGGGACAGCTTTCGGGGACGGCCGTGCCGCCCCAGGGTGCCGAGCCCCAGAGCAACGCGGGCCCACGACCCCATATCGGGGACACGTTATTTACCCTGTTTCGGGCCCCCGAGTTGCTGGCCCCCAACGGCGACCTGTATAACGTGTTTGCCTGGGCCTTGGACGTCTTGGCCAAACGCCTCCGTCCCATGCACGTCTTTATCCTGGATTACGACCAATCGCCCGCCGGCTGCCGGGACGCCCTGCTGCAACTTACCTCCGGGATGGTCCAGACCCACGTCACCACCCCAGGCTCCATACCGACGATCTGCGACCTGGCGCGCACGTTTGCCCGGGAGATGGGGGAGGCTAACTGA
# modifications: HSV-1 thymidine kinase mutant sequence.
# B3: TkMut234 (nucleic acid)
# DNA: ATGGCTTCGTACCCCTGCCATCAACACGCGTCTGCGTTCGACCAGGCTGCGCGTTCTCGCGGCCATAGCAACCGACGTACGGCGTTGCGCCCTCGCCGGCAGCAAGAAGCCACGGAAGTCCGCCTGGAGCAGAAAATGCCCACGCTACTGCGGGTTTATATAGACGGTCCTCACGGGATGGGGAAAACCACCACCACGCAACTGCTGGTGGCCCTGGGTTCGCGCGACGATATCGTCTACGTACCCGAGCCGATGACTTACTGGCAGGTGCTGGGGGCTTCCGAGACAATCGCGAACATCTACACCACACAACACCGCCTCGACCAGGGCGAGATATCGGCCGGGGACGCGGCGGTGGTAATGACAAGCGCCCAGATAACAATGGGCATGCCTTATGCCGTGACCGACGCCGTTCTGGCTCCTCATGTCGGGGGGGAGGCTGGGAGTTCACATGCCCCGCCCCCGGCCCTCACCCTCATCTTCGACCGCCATCCCATCGCCGCCCTCCTGTGCTACCCGGCCGCGCGATACCTTATGGGCTCCATGACCCCCCAAGCCGTGCTGGCGTTCGTGGCCCTCATCCCGCCGACCTTGCCCGGCACAAACATCGTGTTGGGGGCCCTTCCGGAGGACAGACACATCGACCGCCTGGCCAAACGCCAGCGCCCCGGCGAGCGGCTTGACCTGGCTATGCTGGCCGCGATTCGCCGCGTTTACGGGCTGCTTGCCAATACGGTGCGGTATCTGCAGGGCGGCGGGTCGTGGTGGGAGGATTGGGGACAGCTTTCGGGGACGGCCGTGCCGCCCCAGGGTGCCGAGCCCCAGAGCAACGCGGGCCCACGACCCCATATCGGGGACACGTTATTTACCCTGTTTCGGGCCCCCGAGTTGCTGGCCCCCAACGGCGACCTGTATAACGTGTTTGCCTGGGCCTTGGACGTCTTGGCCAAACGCCTCCGTCCCATGCACGTCTTTATCCTGGATTACGACCAATCGCCCGCCGGCTGCCGGGACGCCCTGCTGCAACTTACCTCCGGGATGGTCCAGACCCACGTCACCACCCCAGGCTCCATACCGACGATCTGCGACCTGGCGCGCACGTTTGCCCGGGAGATGGGGGAGGCTAACTGA
# modifications: HSV-1 thymidine kinase mutant sequence.
# B4: TkMut24 (nucleic acid)
# DNA: ATGGCTTCGTACCCCTGCCATCAACACGCGTCTGCGTTCGACCAGGCTGCGCGTTCTCGCGGCCATAGCAACCGACGTACGGCGTTGCGCCCTCGCCGGCAGCAAGAAGCCACGGAAGTCCGCCTGGAGCAGAAAATGCCCACGCTACTGCGGGTTTATATAGACGGTCCTCACGGGATGGGGAAAACCACCACCACGCAACTGCTGGTGGCCCTGGGTTCGCGCGACGATATCGTCTACGTACCCGAGCCGATGACTTACTGGCAGGTGCTGGGGGCTTCCGAGACAATCGCGAACATCTACACCACACAACACCGCCTCGACCAGGGCGAGATATCGGCCGGGGACGCGGCGGTGGTAATGACAAGCGCCCAGATAACAATGGGCATGCCTTATGCCGTGACCGACGCCGTTCTGGCTCCTCATGTCGGGGGGGAGGCTGGGAGTTCACATGCCCCGCCCCCGGCCCTCACCCTCATCTTCGACCGCCATCCCATCGCCGCCCTCCTGTGCTACCCGGCCGCGCGATACCTTATGGGCAGCATGACCCCCCAAGCCGTGCTGGCGTTCGTGGCCCTCATCCCGCCGACCTTGCCCGGCACAAACATCGTGTTGGGGGCCCTTCCGGAGGACAGACACATCGACCGCCTGGCCAAACGCCAGCGCCCCGGCGAGCGGCTTGACCTGGCTATGCTGGCCGCGATTCGCCGCGTTTACGGGCTGCTTGCCAATACGGTGCGGTATCTGCAGGGCGGCGGGTCGTGGTGGGAGGATTGGGGACAGCTTTCGGGGACGGCCGTGCCGCCCCAGGGTGCCGAGCCCCAGAGCAACGCGGGCCCACGACCCCATATCGGGGACACGTTATTTACCCTGTTTCGGGCCCCCGAGTTGCTGGCCCCCAACGGCGACCTGTATAACGTGTTTGCCTGGGCCTTGGACGTCTTGGCCAAACGCCTCCGTCCCATGCACGTCTTTATCCTGGATTACGACCAATCGCCCGCCGGCTGCCGGGACGCCCTGCTGCAACTTACCTCCGGGATGGTCCAGACCCACGTCACCACCCCAGGCTCCATACCGACGATCTGCGACCTGGCGCGCACGTTTGCCCGGGAGATGGGGGAGGCTAACTGA
# modifications: HSV-1 thymidine kinase mutant sequence.
# Experiments:
# [1] = tested on: circulating modified cells; details: six patients who developed GvHD and received ganciclovir; cited from earlier work
# HSV-tk [2] = assay: RT-PCR of HSV-tk mutants, RNA from Am12 supernatants; parameters: species or system HSV-1; details: for lower band (spliced form): TKA1/TKB1 primers
# Excerpt: After sequence confirmation of SFCMM-3 HSV-tk mutants (FIGS. 1A-1C), one plasmid clone of each type was used to transiently transfect E86 cells. SFCMM-3 and TK3 plasmids were used as controls. The supernatant was collected from the E86 cultures and used to stably transduce the amphotropic packaging cell line Am12 as described in Materials and Methods section of Example 2. The resulting cell populations were selected for ΔLNGFR expression.
# RNA was extracted from the E86 as well as Am12 culture supernatants containing infectious retroviral particles. RT-PCR reactions were carried out on RNA from E86 and Am12 supernatants using TKA1 and TKB1 primers according to the protocol described in Materials and Methods section of Example 2.
# HSV-tk [3] = assay: PCR of genomic DNA from transduced CEM A301 cells; type: cell-based, HSV-1; details: CEM A301, TKA1/TKB1 primers, before and after selection
# Experimental: CEM A301 cells were cultured in RPMI 1640 (Hyclone) supplemented with 10% FBS (Hyclone) and 2 mM glutamine. CEM A301 cells were infected with Am12 culture supernatant containing SFCMM-3 HSV-tk mutants 2 and 234. The day before transduction 5×10^5 cells/ml were cultured. Transduction was then performed by one centrifugation cycle of retroviral vector particles on cells. After the transduction phase, cells were collected and the percentage of actually transduced cells evaluated by FACS analysis. PBLs from three different donors were transduced (as described in Materials and Methods section of Example 2) with Am12 supernatant containing SFCMM-3 HSV-tk mutant 2 as well as SFCMM-3.
# The transduced cells were then sorted for ΔLNGFR expression and expanded a few days in culture.
# One pellet for PCR analysis was prepared from the transduced non selected cells as well as from transduced selected cells as described in Materials and Methods section of Example 2. Genomic DNA was extracted from pellet cells and PCR reaction was carried out with TKA1 and TKB1 or TKY1 and TKY2 or TKZ1 and TKZ2 primers (as indicated in the table below) in a 25 μl reaction mixture containing 100-500 ng of genomic DNA, 1×PCR Buffer with 1.5 mM of MgCl2 (Applied Biosystems), […] of each dNTPs, 300 nM of each primer, 1.25 Units of AmpliTaq Gold (Applied Biosystems). The PCR cycling profile consisted of a first denaturation step for 15 min at 94° C. followed by 40 cycles with denaturation for 30 s at 94° C., annealing for 50 s at 60° C. and extension for 1 min at 72° C., and one final extension step of 10 min at 72° C., […] Ten microliters of amplified product were analyzed by agarose gel electrophoresis.
Molecule,average decrease in absolute number of circulating modified cells [1] [%],spliced product compared to TK3 and SFCMM-3 (ethidium bromide signal) (HSV-tk [2]),lower band (spliced form) (HSV-tk [2]),additional bands (HSV-tk [2]),lower band (spliced form of HSV-tk gene) (HSV-tk [3])
Nc1nc(O)c2ncn(COC(CO)CO)c2n1 [ganciclovir],85,–,–,–,–
B1,–,less represented,lower band is detected,–,–
B2,–,less represented,lower band is detected,–,–
B3,–,–,not detected,two very weak bands of approximately 100 and 200 bp are detected,No lower band is observed
B4,–,–,not detected,two very weak bands of approximately 100 and 200 bp are detected,–
